# According to the supplement of paper PMC10724198:
# ± gives the standard deviation of the averaged measurements.
# Tested on: Saccharomyces cerevisiae
# Experiment: protein stability index of tFT-peptide fusion (C-terminal peptide) (PSI (0-1 scale)); higher = more stable (slower turnover)
# Conditions: genetic background: wild type; temperature: 30 C
# 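Also: PSI is a weighted mean of sequencing reads over stability bins, variants kept only with over 10 reads, mCherry proximal and sfGFP distal, peptide attached via GGGS linker.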
sequence,measurement,value
SVFVDNLAFSLD,protein stability index,0.708 ± 0.071
VPFRLFSSYLSG,protein stability index,0.641 ± 0.037
SLSSAPPIPPTL,protein stability index,0.697 ± 0.011
SRVVHSHRSFRP,protein stability index,0.6843 ± 0.0047
VWLGGRECVVRG,protein stability index,0.597 ± 0.02
SAGAPRMPARGG,protein stability index,0.691 ± 0.071
FYLLTASVCGMF,protein stability index,0.53 ± 0.0053
LARASLVLPPSG,protein stability index,0.648 ± 0.093
GGGGLFGCWVCG,protein stability index,0.654 ± 0.011
VFGCAGVGGDCG,protein stability index,0.67 ± 0.028
TRPSRRPPRPSS,protein stability index,0.753 ± 0.22
WGGGSGRRIGCR,protein stability index,0.70604 ± 0.00021
NNIMKPKRKIIK,protein stability index,0.683 ± 0.031
NKIDNNKKIHRV,protein stability index,0.699 ± 0.053
WTGGEEGTAVQA,protein stability index,0.676 ± 0.025
SERRVKKIEEQI,protein stability index,0.77 ± 0.084
SLFRGHLLPPRP,protein stability index,0.688 ± 0.036
SVLVLGRSRPSF,protein stability index,0.688 ± 0.047
SVVSLLCQFLLG,protein stability index,0.673 ± 0.13
LAPALPPQPPSH,protein stability index,0.658 ± 0.023
DQVSGYNVWFGT,protein stability index,0.698 ± 0.028
SHVVDAPYRSEG,protein stability index,0.66601 ± 0.00013
PPPPSLPTPRPP,protein stability index,0.662 ± 0.012
WLGGIFRNKVFT,protein stability index,0.621 ± 0.013
WRVMCLQRCSGV,protein stability index,0.541 ± 0.011
LPFPSCYLRASL,protein stability index,0.779 ± 0.033
HRPDGTSRKSGA,protein stability index,0.662 ± 0.024
GSMRRSSVTLSA,protein stability index,0.709 ± 0.065
KVSIINAWKEKI,protein stability index,0.679 ± 0.044
DSLSVSLSLVRG,protein stability index,0.696 ± 0.028
IFGRLRELTCWT,protein stability index,0.588 ± 0.034
EVVGGSESRELG,protein stability index,0.6569 ± 0.0027
IAVPFMPADLSF,protein stability index,0.718 ± 0.0089
CPSSFSALSNSR,protein stability index,0.671 ± 0.049
SSLPALRSPCHP,protein stability index,0.738 ± 0.06
LDLLRCIQHCVV,protein stability index,0.637 ± 0.027
GPCFPRRSAPSD,protein stability index,0.67 ± 0.046
DVRNDSSLIIQI,protein stability index,0.688 ± 0.053
SSESPPLLPRPL,protein stability index,0.754 ± 0.032
MCLTPLWYPSSA,protein stability index,0.709 ± 0.03
ARRAPTFFSLWR,protein stability index,0.658 ± 0.049
TLLPPACFPTPP,protein stability index,0.717 ± 0.017
FERRGSSFWGGC,protein stability index,0.7 ± 0.032
VSARRTLRFSFE,protein stability index,0.685 ± 0.016
GESSLSTGAQHK,protein stability index,0.67 ± 0.021
NLYENQDHETYR,protein stability index,0.651 ± 0.13
SLFPAGWAGFSD,protein stability index,0.73 ± 0.011
AKRRELKCRVNL,protein stability index,0.674 ± 0.0087
CRCTKVVVFGYP,protein stability index,0.667 ± 0.022
DTSPSPPPLSVL,protein stability index,0.693 ± 0.017
RILIRVQSSKLR,protein stability index,0.671 ± 0.09
WNRNVEILSALA,protein stability index,0.548 ± 0.012
KYYRKKNIEKEN,protein stability index,0.575 ± 0.017
ESRVTNKQSYQA,protein stability index,0.678 ± 0.03
CLGPDWWARRSI,protein stability index,0.772 ± 0.064
LASSVRSSASVP,protein stability index,0.739 ± 0.034
PPPPPRPFLPPP,protein stability index,0.654 ± 0.058
GKRHICFNHSGE,protein stability index,0.6966 ± 0.0045
PAPPLPPPPSPY,protein stability index,0.72 ± 0.11
RKEKKMKITKRC,protein stability index,0.691 ± 0.044
GGVLSAGSWSGG,protein stability index,0.665 ± 0.019
VPPASTSPGAFP,protein stability index,0.6889 ± 0.003
WKRDSCFFIEAG,protein stability index,0.638 ± 0.042
TWYYRYSCCQLP,protein stability index,0.696 ± 0.014
SLDQGSSSLFIM,protein stability index,0.731 ± 0.082
GMSRLFTYRAAS,protein stability index,0.72 ± 0.0091
LYVARVGQCVRD,protein stability index,0.686 ± 0.029
GISASYTASSSG,protein stability index,0.642 ± 0.067
RQSLEDSLLHQH,protein stability index,0.774 ± 0.081
PCLSRFPGSPFL,protein stability index,0.6896 ± 0.0042
CSYIQTSKTVVS,protein stability index,0.756 ± 0.082
KTGNKKQRKKKV,protein stability index,0.753 ± 0.032
RPAPPLFVSSPG,protein stability index,0.699 ± 0.0097
YFLCPPTSPHRH,protein stability index,0.736 ± 0.13
VSLISCGGVYAG,protein stability index,0.688 ± 0.015
AGSLCSVVFFSG,protein stability index,0.688 ± 0.23
YSRRRKILRKSY,protein stability index,0.615 ± 0.051
LPPPPPPLPHPP,protein stability index,0.597 ± 0.083
MGGCGARAVVVG,protein stability index,0.6196 ± 0.0032
GRGGYGKESLYC,protein stability index,0.627 ± 0.031
RNRTNVETKTGS,protein stability index,0.6966 ± 0.0034
HQYLGMCLDRPV,protein stability index,0.6455 ± 0.0054
PFLRLLQTVGST,protein stability index,0.593 ± 0.024
RLLGSSPAVLLY,protein stability index,0.628 ± 0.062
EGTSYWDPSVPG,protein stability index,0.741 ± 0.045
CVIGDKRRSKAI,protein stability index,0.6808 ± 0.0021
GCGGGVCGWWDA,protein stability index,0.916 ± 0.12
KRAPEPPTPPAP,protein stability index,0.672 ± 0.015
VWASVRRIFRVG,protein stability index,0.554 ± 0.0058
VRRVWYGSFSRL,protein stability index,0.81 ± 0.012
QNERRLPVGSYA,protein stability index,0.696 ± 0.06
WKPGSPGCQAFR,protein stability index,0.6031 ± 0.0017
GPPPPLFAPWPF,protein stability index,0.656 ± 0.027
TEVWERGKNVGE,protein stability index,0.635 ± 0.03
GGAGGVVGGGGG,protein stability index,0.616 ± 0.018
RALCISCYVALR,protein stability index,0.5849 ± 0.00077
GVVALFLYLLVL,protein stability index,0.494 ± 0.02
GAKVALLSFGFA,protein stability index,0.667 ± 0.1
VPGYLLIDFWWV,protein stability index,0.5707 ± 0.001
SPLPPPPRPPLP,protein stability index,0.691 ± 0.039
PPPPPSSPPASP,protein stability index,0.653 ± 0.03
